This is an account of results in the RNAGym collection of RNA variant scans (doi:10.1093/molbev/msab373).

The chains are these.
B1: Azoarcus group I ribozyme (parent)
chain: GUGCCUUGCGCCGGGAAACCACGCAAGGGAUGGUGUCAAAUUCGGCGAAACCUAAGCGCCCGCCCGGGCGUAUGGCAACGCCGAGCCAAGCUUCGGCGCCUGCGCCGAUGAAGGUGUAGAGACUAGACGGCACCCACCUAAGGCAAACGCUAUGGUGAAGGCAUAGUCCAGGGAGUGGCGAAAGUCACACAAACCGG

Variants of B1 are the subject of this series. The experiment in a line: reverse-splicing fitness (ratio to wild type); higher = more active; in vitro selection; Mg2+ level not given. In a few lines:
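An in vitro group I ribozyme library with randomized positions was T7-transcribed and gel-purified. In triplicate, 10 pmol RNA in EPPS pH 7.5 was reacted with 50 pmoles of a 30-nt RNA substrate for 1 h at 37 °C across several added MgCl2 levels (1–48 mM), then stopped with EDTA. Products were reverse transcribed from a substrate-complementary primer, PCR-amplified and sequenced (HiSeq 4000). Fitness is a variant's read proportion after selection over that before, normalised to wild type.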
As to C82U A111G A120U A145C C150U U176C, the reverse-splicing fitness came out at 0.00518. For C82U A111G A120U A145C C150U U176G, the reverse-splicing fitness amounted to 0.00212.

In the case of C82U A111G A120U A145C C150U U176A, the reverse-splicing fitness was 0.00377. Then C82U A111G A120U A145G C150G U176A, with 0.00494; and C82U A111G A120U A145G C150G U176C, with 0.00719. As for C82U A111G A120U A145G C150G U176G, the reverse-splicing fitness came to 0.00276. Next, C82U A111G A120U A145C C150G C169U U176A: 0.00227; C82U A111G A120U A145C C150G C169U U176G: 0.00181. Then C82U A111G A120U A145C C150G C169U U176C, with 0.00213; and C82U A111G A145G C150A C169A U176A, with 0.0187; and C82U A111G A145G C150A C169A U176G, with 0.00546.

For the variant C82U A111G A145G C150A C169A U176C, the reverse-splicing fitness came out at 0.0247.

C82U A111G A145C C169A: the reverse-splicing fitness came to 0.00618. In the case of C82U A111G A145C C169G, the reverse-splicing fitness was 0.0078. Then C82U A111G A145C C169U, with 0.00982; and C82U A111G A145G C150G C169U U176A, with 0.0101. Then C82U A111G A145G C150G C169U U176G, with 0.00654; and C82U A111G A145G C150G C169U U176C, with 0.012; and C82U A111G A120U A145U C150U C169A U176A, with 0.00289.

Turning to C82U A111G A120U A145U C150U C169A U176C, the reverse-splicing fitness was found to be 0.0023. Then C82U A111G A120U A145U C150U C169A U176G, with 0.00165; and C82U A111G A145G C150A C169U U176C, with 0.0151. Turning to C82U A111G A145G C150A C169U U176A, the reverse-splicing fitness is 0.0135.

Take C82U A111G A145G C150A C169U U176G: the reverse-splicing fitness is 0.00552. Next, C82U A111G A145C C150U C169U U176G: 0.00493; C82U A111G A145C C150U C169U U176A: 0.0119.

As for C82U A111G A145C C150U C169U U176C, the reverse-splicing fitness was 0.00834. Next, C82U A111G A120U A145C C150U C169A U176G: 0.00196; C82U A111G A120U A145C C150U C169A U176C: 0.0021; C82U A111G A120U A145C C150U C169A U176A: 0.00277. On to C82U A111G A120U C169G U176G, for which the reverse-splicing fitness worked out at 0.00183. For the variant C82U A111G A120U C169G U176C, the reverse-splicing fitness is 0.00265. For C82U A111G A120U C169G U176A, the reverse-splicing fitness amounted to 0.0028. As to C82U A111G A120U A145U C150U C169G U176G, the reverse-splicing fitness worked out at 0.00172.

With C82U A111G A120U A145U C150U C169G U176C, the reverse-splicing fitness worked out at 0.00294.

As to C82U A111G A120U A145U C150U C169G U176A, the reverse-splicing fitness was 0.0026. For the variant C82U A111G A145C C150A C169U U176G, the reverse-splicing fitness worked out at 0.00504. Turning to C82U A111G A145C C150A C169U U176A, the reverse-splicing fitness is 0.0133. For C82U A111G A145C C150A C169U U176C, the reverse-splicing fitness amounted to 0.00672.

Consider C82U A111G A145C C150G U176C, for which the reverse-splicing fitness came out at 0.0249. Then C82U A111G A145C C150G U176G, with 0.00329; and C82U A111G A145C C150G U176A, with 0.0112; and C82U A111G A145G C150G C169G U176A, with 0.00977. On to C82U A111G A145G C150G C169G U176C, for which the reverse-splicing fitness came to 0.00848. Next, C82U A111G A145G C150G C169G U176G: 0.00507; C82U A111G A120U A145C U176G: 0.00339. Next, C82U A111G A120U A145C U176C: 0.0117; C82U A111G A120U A145C U176A: 0.00851; C82U A111G A120U A145G C150U C169G U176C: 0.00432. For C82U A111G A120U A145G C150U C169G U176A, the reverse-splicing fitness was 0.00913. Next, C82U A111G A120U A145G C150U C169G U176G: 0.00189; C82U A111G A120U C169U: 0.00493. For C82U A111G A120U C169A, the reverse-splicing fitness turned out to be 0.00275.

On to C82U A111G A120U C169G, for which the reverse-splicing fitness came out at 0.00416. As for C82U A111G A145C C150A C169G U176G, the reverse-splicing fitness came out at 0.0054. As to C82U A111G A145C C150A C169G U176C, the reverse-splicing fitness was determined as 0.0112.

On to C82U A111G A145C C150A C169G U176A, for which the reverse-splicing fitness stood at 0.0215. For C82U A111G A120U C150A C169A, the reverse-splicing fitness turned out to be 0.00324.

With C82U A111G A120U C150A C169U, the reverse-splicing fitness was determined as 0.00325. Then C82U A111G A120U C150A C169G, with 0.00358; and C82U A111G A120U C150U C169U U176A, with 0.00404.

As for C82U A111G A120U C150U C169U U176G, the reverse-splicing fitness was 0.0019. Take C82U A111G A120U C150U C169U U176C: the reverse-splicing fitness was determined as 0.00375. Then C82U A111G A145G C150U C169A, with 0.00982; and C82U A111G A145C C150A U176G, with 0.00788. In the case of C82U A111G A145C C150A U176A, the reverse-splicing fitness worked out at 0.0156. Turning to C82U A111G A145C C150A U176C, the reverse-splicing fitness stood at 0.0142.

Consider C82U A111G A120U A145G C150A C169G U176G, for which the reverse-splicing fitness was found to be 0.00221. As to C82U A111G A120U A145G C150A C169G U176A, the reverse-splicing fitness was 0.0124. Then C82U A111G A120U A145G C150A C169G U176C, with 0.00574. Regarding C82U A111G A120U A145U C150A U176C, the reverse-splicing fitness came to 0.00416. Then C82U A111G A120U A145U C150A U176G, with 0.00212; and C82U A111G A120U A145U C150A U176A, with 0.00427. Regarding C82U A111G A120U A145G C150U U176A, the reverse-splicing fitness stood at 0.00999.

For the variant C82U A111G A120U A145G C150U U176G, the reverse-splicing fitness worked out at 0.00327.

With C82U A111G A120U A145G C150U U176C, the reverse-splicing fitness is 0.0134. As for C82U A111G A120U A145G C169G U176G, the reverse-splicing fitness amounted to 0.00169. Turning to C82U A111G A120U A145G C169G U176C, the reverse-splicing fitness is 0.00294. In the case of C82U A111G A120U A145G C169G U176A, the reverse-splicing fitness was determined as 0.00278. For C82U A111G A120U A145U C150G U176G, the reverse-splicing fitness worked out at 0.00254. As to C82U A111G A120U A145U C150G U176A, the reverse-splicing fitness was 0.00344. On to C82U A111G A120U A145U C150G U176C, for which the reverse-splicing fitness amounted to 0.00492.

Turning to C82U A111G A120U A145U C169G, the reverse-splicing fitness is 0.00313.
